Reference: PMC7138525 (Cell reports, 2020)

T1: HCB, recombinant BoNT preparation coated for ELISA (Clostridium botulinum, BoNT/B subtype B1)
T1 chain: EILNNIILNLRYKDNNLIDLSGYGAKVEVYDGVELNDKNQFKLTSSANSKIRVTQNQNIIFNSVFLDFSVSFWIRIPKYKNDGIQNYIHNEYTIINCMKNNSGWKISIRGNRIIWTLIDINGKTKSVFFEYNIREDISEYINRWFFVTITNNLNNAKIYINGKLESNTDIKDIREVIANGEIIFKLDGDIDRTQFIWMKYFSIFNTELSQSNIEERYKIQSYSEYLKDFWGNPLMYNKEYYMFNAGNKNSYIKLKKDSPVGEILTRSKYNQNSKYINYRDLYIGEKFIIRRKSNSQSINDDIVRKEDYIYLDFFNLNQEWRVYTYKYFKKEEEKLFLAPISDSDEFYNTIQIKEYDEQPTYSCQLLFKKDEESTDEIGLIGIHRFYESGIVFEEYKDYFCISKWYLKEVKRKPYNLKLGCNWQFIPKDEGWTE


Tests used:
[1] = target: T1, HCB, recombinant BoNT preparation …; experiment: ELISA
[2] = target: T2, HCB, receptor-binding domain of BoNT/B1 (E859–E1291) (UniProt P10844); experiment: SEC
[3] = target: T2, HCB, receptor-binding domain of BoNT/B1 …; experiment: crystal structure

| Binder | binding result [1] | also measured |
| --- | --- | --- |
| VHH JLO-G11, His6-tagged thioredoxin fusion with carboxy-terminal E-tag (VHH) VHH: QVQLAESGGGLVQPGGSLRLSCEASGFHLEHFAVGWFRQAPGKEREGVSCISASGDSTTYADSVKGRSTISKDNAKNAVYLQMDSLRPEDTGDYYCAASHFSVCGKNIRKIEYRYWGQGTPVTVSS | binds |  |
| VHH JLI-H11 (from GST fusion) (VHH) VHH: QVQLVESGGGLVQPGESLRLSCGASGMSLDYYAIAWYRQAPGKEREGVSCISVSGSSAQYLDSVRGRFIISKDNTKSTAYLQMNSLKPEDTAVYYCAALADCAGYASLTFDFDSWGQGTQVAVSS |  | binding result [2]: binds |
| VHH JLI-H11, His6-tagged thioredoxin fusion with carboxy-terminal E-tag (VHH) VHH: QVQLVESGGGLVQPGESLRLSCGASGMSLDYYAIAWYRQAPGKEREGVSCISVSGSSAQYLDSVRGRFIISKDNTKSTAYLQMNSLKPEDTAVYYCAALADCAGYASLTFDFDSWGQGTQVAVSS | binds |  |
| VHH JLK-G12 (from GST fusion) (VHH) VHH: QVQLVESGGGLVQAGGSLRLSCAASEFRAEHFAVGWFRQAPGKEREGVSCVDASGDSTAYADSVKGRFTISRDNNKNVVYLQMDSLEPEDTGDYYCGASYFTVCAKSMRKIEYRYWGQGTQVTVSS |  | binding result [2]: binds |
| VHH JLK-G12, His6-tagged thioredoxin fusion with carboxy-terminal E-tag (VHH) VHH: QVQLVESGGGLVQAGGSLRLSCAASEFRAEHFAVGWFRQAPGKEREGVSCVDASGDSTAYADSVKGRFTISRDNNKNVVYLQMDSLEPEDTGDYYCGASYFTVCAKSMRKIEYRYWGQGTQVTVSS | binds |  |
| VHH JLI-G10 (VHH) VHH: QVQLVESGGGLVQAGGSLRLSCAASILTYDLDYYYIGWVRQAPGKEREGVSCISSTDGATYYADSVKGRFTISRNNAKNTVYLQMNNLKPEDTAIYYCAAAPLAGRYCPASHEYGYWGQGTQVTVSS |  | binding result [3]: binds |
| VHH JLI-G10, His6-tagged thioredoxin fusion with carboxy-terminal E-tag (VHH) VHH: QVQLVESGGGLVQAGGSLRLSCAASILTYDLDYYYIGWVRQAPGKEREGVSCISSTDGATYYADSVKGRFTISRNNAKNTVYLQMNNLKPEDTAIYYCAAAPLAGRYCPASHEYGYWGQGTQVTVSS | binds |  |
